Experimental findings from patent publication US20150045540A1 (published 2015) are described below.

The target of assay [1] is Hepatocyte Growth Factor (HGF), human (human, UniProt P14210 32-728). The assay is described as follows: ELISA. For orientation: ELISA stands for enzyme-linked immunosorbent assay.
The target of assay [2] is T1, Placenta Growth Factor (PlGF), human (human, UniProt P49763 21-149).
T1 chain: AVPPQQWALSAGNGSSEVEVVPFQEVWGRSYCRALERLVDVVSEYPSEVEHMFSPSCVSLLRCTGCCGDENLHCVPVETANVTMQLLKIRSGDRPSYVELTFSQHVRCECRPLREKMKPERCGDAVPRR
The assay is described as follows: ELISA.

Sequence of Hepatocyte Growth Factor (HGF), human (P14210 32-728): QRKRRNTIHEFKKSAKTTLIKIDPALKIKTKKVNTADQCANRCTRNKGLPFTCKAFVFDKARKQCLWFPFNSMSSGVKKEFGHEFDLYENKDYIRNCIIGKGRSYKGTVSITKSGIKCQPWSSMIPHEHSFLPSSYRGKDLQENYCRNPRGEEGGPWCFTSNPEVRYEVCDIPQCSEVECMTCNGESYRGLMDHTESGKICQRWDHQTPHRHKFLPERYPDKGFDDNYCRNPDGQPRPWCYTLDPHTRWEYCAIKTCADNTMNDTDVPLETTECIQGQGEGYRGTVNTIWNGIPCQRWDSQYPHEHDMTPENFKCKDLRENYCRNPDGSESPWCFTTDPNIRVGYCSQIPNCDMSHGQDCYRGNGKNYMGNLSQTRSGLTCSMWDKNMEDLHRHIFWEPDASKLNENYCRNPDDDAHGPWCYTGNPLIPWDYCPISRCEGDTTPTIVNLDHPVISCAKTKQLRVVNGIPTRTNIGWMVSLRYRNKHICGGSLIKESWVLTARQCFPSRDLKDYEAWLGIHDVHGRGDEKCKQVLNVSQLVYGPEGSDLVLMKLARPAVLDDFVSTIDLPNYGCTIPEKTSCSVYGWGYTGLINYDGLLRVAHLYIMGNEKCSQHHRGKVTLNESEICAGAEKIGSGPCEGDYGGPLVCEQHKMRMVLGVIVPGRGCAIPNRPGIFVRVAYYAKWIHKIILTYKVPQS

B1: HC 10/SLC 5 (antibody)
chain 1: GQGTLVTVSSASTKGPSVFPQPVLHQPPAMSSALGTTIRLTCTLRNDHDIGVYSVYWYQQRPGHPPRFLLRYFSQSDKSQGPQVPPRFSGSKDVARNRGYLSISELQPEDEAMYYCAMGARSRCWPRGFQSKHNSVTHVFGSGTQLTVLSQPKATPSVTLFPPSSEELQANKATLVCLMNDFYPGILTVTWKADGTPITQGVEMTTPSKQSNNKYAASSYLSLTPEQWRSRRSYSCQVMHEGSTVEKTVAPAECS
chain 2: MSWAPVLLMLFVYCTGCGPQPVLHQPPAMSSALGTTIRLTCTLRNDHDIGVYSVYWYQQRPGHPPRFLLRYFSQSDKSQGPQVPPRFSGSKDVARNRGYLSISVTHVFGSGTQLTVLSQPKAQVQLVQ
As usually defined, the EC50 is the concentration at which the effect is half-maximal. Higher therefore signals weaker potency. For the molecule B1, the EC50 is 0.061 nM in assay [1] and 0.181 nM in assay [2].

B2: HC 8/SLC 6 (antibody)
chain 1: GQGTLVTVSSASTKGPSVQPVLHQPPAMSSALGTTIRLTCTLRNDHDIGVYSVYWYQQRPGHPPRFLLRYFSQSDKSQGPQVPPRFSGSKDVARNRGYLSISELQPEDEAMYYCAMGARSRCWPRGFQSKHNSVTHVFGSGTQLTVLSQPKATPSVTLFPPSSEELQANKATLVCLMNDFYPGILTVTWKADGTPITQGVEMTTPSKQSNNKYAASSYLSLTPEQWRSRRSYSCQVMHEGSTVEKTVAPAECS
chain 2: MSWAPVLLMLFVYCTGCGPQPVLHQPPAMSSALGTTIRLTCTLRNDHDIGVYSVYWYQQRPGHPPRFLLRYFSQSDKSQGPQVPPRFSGSKDVARNRGYLSISVTHVFGSGTQLTVLSQPKATQVQLVQ
For B2, the EC50 was found to be 0.061 nM in assay [1] and 0.128 nM in assay [2].

B3: HC 8/SLC 15 (antibody)
chain 1: B2 chain 1
chain 2: MSWAPVLLMLFVYCTGCGPQPVLHQPPAMSSALGTTIRLTCTLRNDHDIGVYSVYWYQQRPGHPPRFLLRYFSQSDKSQGPQVPPRFSGSKDVARNRGYLSISVTHVFGSGTQLTVLSQPKATPSVTGGGGSQVQLVQ
For the molecule B3, the EC50 is 0.048 nM in assay [1] and 0.05 nM in assay [2].

B4: HC 6/SLC 3 (antibody)
chain 1: GQGTLVTVSSASTKGPQPVLHQPPAMSSALGTTIRLTCTLRNDHDIGVYSVYWYQQRPGHPPRFLLRYFSQSDKSQGPQVPPRFSGSKDVARNRGYLSISELQPEDEAMYYCAMGARSRCWPRGFQSKHNSVTHVFGSGTQLTVLSQPKATPSVTLFPPSSEELQANKATLVCLMNDFYPGILTVTWKADGTPITQGVEMTTPSKQSNNKYAASSYLSLTPEQWRSRRSYSCQVMHEGSTVEKTVAPAECS
chain 2: MSWAPVLLMLFVYCTGCGPQPVLHQPPAMSSALGTTIRLTCTLRNDHDIGVYSVYWYQQRPGHPPRFLLRYFSQSDKSQGPQVPPRFSGSKDVARNRGYLSISVTHVFGSGTQLTVLSQPQVQLVQ
Turning to B4, the EC50 in assay [1] turned out to be 0.069 nM; in assay [2], 0.16 nM.

B5: HC 4/SLC 2 (antibody)
chain 1: GQGTLVTVSSASTKQPVLHQPPAMSSALGTTIRLTCTLRNDHDIGVYSVYWYQQRPGHPPRFLLRYFSQSDKSQGPQVPPRFSGSKDVARNRGYLSISELQPEDEAMYYCAMGARSRCWPRGFQSKHNSVTHVFGSGTQLTVLSQPKATPSVTLFPPSSEELQANKATLVCLMNDFYPGILTVTWKADGTPITQGVEMTTPSKQSNNKYAASSYLSLTPEQWRSRRSYSCQVMHEGSTVEKTVAPAECS
chain 2: MSWAPVLLMLFVYCTGCGPQPVLHQPPAMSSALGTTIRLTCTLRNDHDIGVYSVYWYQQRPGHPPRFLLRYFSQSDKSQGPQVPPRFSGSKDVARNRGYLSISVTHVFGSGTQLTVLSQQVQLVQ
For the molecule B5, the EC50 in assay [1] worked out at 0.053 nM; in assay [2], 0.188 nM.
